These results are taken from patent publication JP2022028645A (dated 2022).

Test [1] deals with T1, Human EGFRvIII expressed on cells (CHO-EGFRvIII, DK-MG, U87MG-EGFRvIII) (human, UniProt P00533 298-1210).
T1 construct: also called EGFRvIII; huEGFRvIII
Briefly: flow cytometry on CHO-EGFRvIII and EGFRvIII-positive DK-MG cells. On the technique in general: In flow cytometry, cells or beads pass a laser one at a time.

The target in test [2] is T1, Human EGFRvIII expressed on cells …. Briefly: flow cytometry on CHO-EGFRvIII cells, TCB against the corresponding IgG.
The target is the same in test [3]. Briefly: SPR and flow cytometry on U87MG-EGFRvIII and MKN-45 cells, compared with the parental binder.
The target of test [4] is T2, Recombinant human CD3 antigen: heterodimer of CD3 delta and CD3 epsilon ectodomains fused to human Fc domain … (human).
T2 construct: also called 組換えCD3; ヒトCD3
Briefly: SPR (Biacore T200), antibody captured by anti-Fab, CD3 antigen 10 ug/ml, relative active concentration after 14 days of temperature stress. For orientation: In SPR one partner is held on a chip, and binding of the other changes the refractive index at the surface.

The target of test [5] is T3, EGFRvIII-ECD avi his (extracellular domain of human EGFRvIII fused to C-terminal Avi-tag and His-tag) (human).
T3 construct: also called 組み換えEGFRvIII; EGFRvIII抗原
Briefly: SPR (Biacore T200), TCB (5 nM) captured by anti-Fc antibody, EGFRvIII-ECD avi his 3-fold dilution series as analyte, 1:1 Langmuir fit.

Test [6] concerns the target T4, Recombinant cynomolgus CD3 antigen: heterodimer of cynomolgus CD3 delta and CD3 epsilon ectodomains fused to … (cynomolgus monkey).
T4 construct: also called カニクイザルCD3
Briefly: SPR (Biacore T200), TCB captured at 20 nM by anti-PGLALA antibody, CD3 antigen as analyte, 1:1 Langmuir fit.

The target of test [7] is T2, Recombinant human CD3 antigen: …. The test is described as above.
For test [8], the target named is T4, Recombinant cynomolgus CD3 antigen: …. Briefly: SPR (Biacore T200), TCB captured by anti-PGLALA antibody, CD3 antigen 12.35-3000 nM as analyte, 1:1 Langmuir fit.
Test [9] deals with T2, Recombinant human CD3 antigen: …. The description is as above.
In test [10] the target is T5, Cynomolgus TYRP1 extracellular domain (ECD), monomeric fusion to human Fc domain with knob-into-hole and PG … (cynomolgus monkey, UniProt P01857 104-328 = IgG part).
T5 construct: also called カニクイザルTYRP1
Briefly: SPR (Biacore T200), TYRP1 ECD-Fc captured by anti-PGLALA antibody, Fab 3-fold dilution series as analyte, 1:1 Langmuir fit.

The target in test [11] is T6, Mouse TYRP1 extracellular domain (ECD), monomeric fusion to human Fc domain with knob-into-hole and PG LALA … (mouse, UniProt P01857 104-328 = IgG part).
T6 construct: also called マウスTYRP1
The description is as above.

Test [12] deals with T7, Human TYRP1 extracellular domain (ECD), monomeric fusion to human Fc domain with knob-into-hole and PG LALA … (human, UniProt P01857 104-328 = IgG part).
T7 construct: also called ヒトTYRP1
Described as above.

Changes are numbered by the printed parent chain. Numbers in names are those of the source.

B1: EGFRvIII IgG PGLALA P056.021 (antibody, human IgG1, V domains shown)
VH: EVQLVQSGAEVKKPGESLKISCKGSGYSFDSYWIAWVRQMPGKGLEWMGVIHPYDSDTRYSPSFQGQVTISADKSISTAYLQWSSLKASDTAMYYCARVSRSSYAFDYWGQGTLVTVSS
VL: not shown
notes: Human IgG1 with P329G L234A L235A; also called P056.021
B1: in test [1], the binding result is “binds”.

B2: EGFRvIII TCB P056.021 (with CD3orig, 2+1 IgG CrossFab inverted) (bispecific antibody, V domains shown)
VH 1: B1 VH
VL 1: not shown
VH 2: not shown
VL 2: QAVVTQEPSLTVSPGGTVTLTCGSSTGAVTTSNYANWVQEKPGQAFRGLIGGTNKRAPGTPARFSGSLLGGKAALTLSGAQPEDEAEYYCALWYSNLWVFGGGTKLTVL
notes: only the variable domains can be tied to it; also called P056.021 EGFRvIII TCB; parental EGFRvIII TCB
On to B2, for which the binding result in [2] is reported as “binds”.

B3: EGFRvIII IgG PGLALA P063.056 (affinity-matured EGFRvIII binder) (antibody, human IgG1, V domains shown)
VH: B1 VH
VL: not shown
notes: Human IgG1 PGLALA; also called P063.056
With B3, in test [3], the binding result is recorded as “binds”.

B4: CD3 opt ヒトIgG1 PGLALA (optimized CD3 binder, human IgG1 with P329G L234A L235A) (antibody, V domains shown)
VH: EVQLLESGGGLVQPGGSLRLSCAASGFQFSSYAMNWVRQAPGKGLEWVSRIRSKYNNYATYYADSVKGRFTISRDDSKNTLYLQMNSLRAEDTAVYYCVRHTTFPSSYVSYYGYWGQGTLVTVSS
VL: QAVVTQEPSLTVSPGGTVTLTCGSSTGAVTTSNYANWVQEKPGQAFRGLIGGTNKRAPGTPARFSGSLLGGKAALTLSGAQPEDEAEYYCALWYSNLWVFGGGTKLTVLR
notes: also called CD3opt; CD3opt IgG PGLALA
Turning to B4, in test [4], the binding result is given as “binds”.

B5: EGFRvIII TCB CD3 opt (EGFRvIII binder P063.056 and optimized CD3 binder, 2+1 IgG CrossFab inverted) (bispecific antibody)
heavy 1: not shown
heavy 2: EVQLVQSGAEVKKPGESLKISCKGSGYSFDSYWIAWVRQMPGKGLEWMGVIHPYDSDTRYSPSFQGQVTISADKSISTAYLQWSSLKASDTAMYYCARVSRSSYAFDYWGQGTLVTVSSASTKGPSVFPLAPSSKSTSGGTAALGCLVEDYFPEPVTVSWNSGALTSGVHTFPAVLQSSGLYSLSSVVTVPSSSLGTQTYICNVNHKPSNTKVDEKVEPKSCDKTHTCPPCPAPEAAGGPSVFLFPPKPKDTLMISRTPEVTCVVVDVSHEDPEVKFNWYVDGVEVHNAKTKPREEQYNSTYRVVSVLTVLHQDWLNGKEYKCKVSNKALGAPIEKTISKAKGQPREPQVCTLPPSRDELTKNQVSLSCAVKGFYPSDIAVEWESNGQPENNYKTTPPVLDSDGSFFLVSKLTVDKSRWQQGNVFSCSVMHEALHNHYTQKSLSLSP
light 1: not shown
light 2: EVQLLESGGGLVQPGGSLRLSCAASGFQFSSYAMNWVRQAPGKGLEWVSRIRSKYNNYATYYADSVKGRFTISRDDSKNTLYLQMNSLRAEDTAVYYCVRHTTFPSSYVSYYGYWGQGTLVTVSSASVAAPSVFIFPPSDEQLKSGTASVVCLLNNFYPREAKVQWKVDNALQSGNSQESVTEQDSKDSTYSLSSTLTLSKADYEKHKVYACEVTHQGLSSPVTKSFNRGEC
notes: Chain roles inferred as for TYRP1 TCB; also called EGFRvIII TCB; P063.056 EGFRvIII TCB with CD3opt
With B5, the results for the Kd in test [5], in [6] and in test [7] were 6 nM, 20 nM and 30 nM, respectively.

B6: TYRP1 TCB CD3 opt (T cell bispecific antibody to CD3 and TYRP1 with optimized CD3 binder, 2+1 IgG CrossFab inverted, charge modifications, PGLALA) (bispecific antibody)
heavy 1: not shown
heavy 2: QVQLVQSGAEVKKPGASVKVSCKASGFNIKDYFLHWVRQAPGQGLEWMGWINPDNGNTVYAQKFQGRVTMTADTSTSTVYMELSSLRSEDTAVYYCTRRDYTYEKAALDYWGQGTLVTVSSASTKGPSVFPLAPSSKSTSGGTAALGCLVEDYFPEPVTVSWNSGALTSGVHTFPAVLQSSGLYSLSSVVTVPSSSLGTQTYICNVNHKPSNTKVDEKVEPKSCDKTHTCPPCPAPEAAGGPSVFLFPPKPKDTLMISRTPEVTCVVVDVSHEDPEVKFNWYVDGVEVHNAKTKPREEQYNSTYRVVSVLTVLHQDWLNGKEYKCKVSNKALGAPIEKTISKAKGQPREPQVCTLPPSRDELTKNQVSLSCAVKGFYPSDIAVEWESNGQPENNYKTTPPVLDSDGSFFLVSKLTVDKSRWQQGNVFSCSVMHEALHNHYTQKSLSLSP
light 1: DIQMTQSPSSLSASVGDRVTITCRASGNIYNYLAWYQQKPGKVPKLLIYDAKTLADGVPSRFSGSGSGTDFTLTISSLQPEDVATYYCQHFWSLPFTFGQGTKLEIKRTVAAPSVFIFPPSDRKLKSGTASVVCLLNNFYPREAKVQWKVDNALQSGNSQESVTEQDSKDSTYSLSSTLTLSKADYEKHKVYACEVTHQGLSSPVTKSFNRGEC
light 2: B5 light 2
notes: also called TYRP1 TCB; TYRP-1 TCB
Turning to B6, the equilibrium dissociation constant (Kd) – broadly, the concentration at which binding is half-saturated – in test [8] came out at 20 nM; in [9] it was 50 nM.

B7: TYRP1 TCB CD3 orig (T cell bispecific antibody to CD3 and TYRP1 with original CD3 binder, 2+1 IgG CrossFab inverted) (bispecific antibody)
heavy 1: not shown
heavy 2: B6 heavy 2
light 1: B6 light 1
light 2: B5 light 2 with Q28T, S31T, T102G, T103N, P105G, S106N, Y111W, Y112F, G113A
notes: chain roles inferred as for the CD3opt molecule
As for B7, the Kd in test [9] was determined as 50 nM.

B8: EGFRvIII TCB CD3 orig (EGFRvIII binder P063.056 and original CD3 binder, 2+1 IgG CrossFab inverted) (bispecific antibody)
heavy 1: not shown
heavy 2: B5 heavy 2
light 1: not shown
light 2: B5 light 2 with Q28T, S31T, T102G, T103N, P105G, S106N, Y111W, Y112F, G113A
notes: chain roles inferred; also called P063.056 EGFRvIII TCB with CD3orig
As for B8, the Kd came to 6 nM in [5] and 40 nM in [7].

B9: TYRP1 Fab断片 (Fab fragment of the humanized TA99-derived TYRP1 binder, made by plasmin digestion of the corresponding antibody) (Fab, V domains shown)
VH: QVQLVQSGAEVKKPGASVKVSCKASGFNIKDYFLHWVRQAPGQGLEWMGWINPDNGNTVYAQKFQGRVTMTADTSTSTVYMELSSLRSEDTAVYYCTRRDYTYEKAALDYWGQGTLVTVSS
VL: DIQMTQSPSSLSASVGDRVTITCRASGNIYNYLAWYQQKPGKVPKLLIYDAKTLADGVPSRFSGSGSGTDFTLTISSLQPEDVATYYCQHFWSLPFTFGQGTKLEIK
notes: also called TYRP1 Fab
With B9, the figures for the Kd in [10], in test [11] and in [12] were 0.18 nM, 0.53 nM and 0.13 nM, respectively.
